In the RNAGym collection of RNA variant scans (doi:10.7554/elife.80360) one finds self-cleavage data, which are given here for 167 variants.

The labels stand for the following.
B1: HDV Ribozyme (parent)
chain: GGCCGGCAUGGUCCCAGCCUCCUCGCUGGCGCCGGCUGGGCAACAUUCCGAGGGGACCGUCCCCUCGGUAAUGGCGAAUGGGACCCA

Variants of B1 are the subject of this data set. The experiment in a line: self-cleavage, relative activity (ratio to wild type); higher = more cleavage; co-transcriptional.
With U9C A51G, the self-cleavage was 0.962.
As for U9A C85U, the self-cleavage was 0.906.
On to U9A U47C, for which the self-cleavage was found to be 0.997.
With A8U G28C the figure was 0.166; with A8U G28U, 0.131; with U9A G17U, 0.383.
Regarding U9A G17C, the self-cleavage stood at 0.297.
As for U9C A56G, the self-cleavage turned out to be 0.935.
For U9C A56U, the self-cleavage came out at 1.04.
Regarding U9C A87C, the self-cleavage is 0.813.
With U9A G38C, the self-cleavage turned out to be 0.237.
The same measure for U9A G38U: 0.237; for U9A G38A: 0.233.
As to U9C A42C, the self-cleavage was determined as 0.475.
Take U9C A42G: the self-cleavage was determined as 0.886.
Take U9A G68C: the self-cleavage amounted to 1.16.
U9A G68U: the self-cleavage turned out to be 1.08.
On to U9A G68A, for which the self-cleavage is 0.955.
The same measure for A8U G50C: 0.939.
Regarding A8U G50U, the self-cleavage was 0.848.
The same measure for U9A C58U: 0.77; for U9A C58G: 0.929; for U9A C58A: 0.789.
As for A8U U46A, the self-cleavage amounted to 0.415.
The same measure for A8U U46C: 0.554.
As for U9C A71U, the self-cleavage was 0.969.
For the variant U9C A71C, the self-cleavage was 0.791.
Turning to U9C C33U, the self-cleavage stood at 0.895.
As to U9A U79G, the self-cleavage is 0.529.
With U9A U79C the figure was 0.237.
With A8U G31C the figure was 0.115; with U9C G39C, 0.287; with U9C A70C, 0.997.
On to U9C C49G, for which the self-cleavage was 1.03.
The same measure for U9C C49U: 0.959.
Consider U9C C49A, for which the self-cleavage was determined as 0.703.
For the variant A8U G81C, the self-cleavage is 0.115.
In the case of A8U G81A, the self-cleavage stood at 0.148.
With U9A C26A the figure was 0.76; with U9A C26G, 0.623.
On to U9A G80C, for which the self-cleavage was 0.189.
In the case of U9A G80A, the self-cleavage was found to be 0.402.
With A8U G59C the figure was 1.02; with A8U G59A, 0.79; with U9A G31U, 0.208.
Regarding U9A G31A, the self-cleavage was found to be 0.554.
With U9C A77C the figure was 0.364; with U9C C86U, 1.35; with U9C C86G, 1.14.
On to A8U U47A, for which the self-cleavage came to 0.767.
Take U9A G59A: the self-cleavage turned out to be 1.19.
For U9A G59C, the self-cleavage is 1.03.
As for U9C G52C, the self-cleavage came out at 1.02.
For the variant U9C U37C, the self-cleavage worked out at 0.978.
Turning to U9C C64U, the self-cleavage came to 0.923.
In the case of U9A G73U, the self-cleavage amounted to 0.244.
Consider U9A G73A, for which the self-cleavage was determined as 0.425.
Regarding U9A G73C, the self-cleavage was determined as 0.227.
The same measure for U9A C24A: 0.914; for U9A C24U: 0.449.
In the case of U9A C24G, the self-cleavage came out at 0.111.
Regarding A8U U12A, the self-cleavage came to 0.208.
As to A8U U12G, the self-cleavage worked out at 0.594.
Consider U9A C13U, for which the self-cleavage was determined as 1.36.
With U9A C13A, the self-cleavage is 0.119.
With U9A G81U the figure was 0.332; with U9C G81U, 0.237.
Regarding U9C G81A, the self-cleavage turned out to be 0.415.
With U9C C19U the figure was 0.208; with U9C C19G, 0.0519.
For U9A G55C, the self-cleavage came out at 1.26.
With U9C C62G, the self-cleavage turned out to be 0.166.
For the variant A8U U9C, the self-cleavage was 0.906.
The same measure for A8U U9A: 0.63; for A8U C63A: 0.415.
Turning to U9C G74A, the self-cleavage was found to be 0.653.
With U9C U72G the figure was 0.582; with A8U G55A, 0.749; with A8U G55U, 0.635.
Consider U9C U20A, for which the self-cleavage worked out at 0.
Take U9C U20C: the self-cleavage was found to be 0.
The same measure for U9A G76C: 1.07; for U9A G76A: 0.955.
The same measure for A8U G67C: 0.718.
U9C C36G: the self-cleavage was found to be 0.
Consider U9A C84G, for which the self-cleavage was determined as 0.554.
U9A C84A: the self-cleavage stood at 0.886.
For the variant U9C A45G, the self-cleavage amounted to 0.95.
On to U9A A16G, for which the self-cleavage worked out at 1.37.
In the case of U9A A16C, the self-cleavage was 0.712.
The same measure for U9G A43U: 0.886; for A8U U79C: 0.177.
Regarding U9A A42G, the self-cleavage is 0.361.
For the variant U9A A42C, the self-cleavage came to 0.252.
As for U9A U72G, the self-cleavage worked out at 0.787.
On to U9A U72C, for which the self-cleavage was found to be 0.688.
With U9A A71U the figure was 0.688; with U9A A71G, 0.506.
In the case of U9C C22U, the self-cleavage was determined as 0.727.
The same measure for U9C C22G: 0; for U9C C21A: 0.0639; for U9C C21U: 0.214.
U9C C21G: the self-cleavage was found to be 0.277.
Take A8U G29U: the self-cleavage turned out to be 0.0437.
With A8U G29A the figure was 0.0852.
Turning to U9A C19A, the self-cleavage worked out at 0.194.
Consider A8U C86A, for which the self-cleavage turned out to be 0.997.
Consider U9C C66G, for which the self-cleavage is 1.04.
The same measure for A8U U69G: 0.59.
In the case of U9C G40C, the self-cleavage was 0.135.
In the case of U9C G40A, the self-cleavage was found to be 0.997.
Take U9A U65A: the self-cleavage is 1.05.
With U9A U65G the figure was 1.11; with A8U U60G, 0.89; with A8U U60C, 0.492.
Regarding A8U G54U, the self-cleavage amounted to 0.574.
As to A8U G54A, the self-cleavage was found to be 0.831.
Turning to U9A A56U, the self-cleavage was found to be 0.867.
For the variant U9A C15G, the self-cleavage amounted to 0.499.
Turning to U9A C15U, the self-cleavage came to 1.02.
U9A A51U: the self-cleavage amounted to 0.914.
With U9A A51G the figure was 0.59; with U9A A45C, 0.723; with U9A A45U, 0.719.
For U9A A45G, the self-cleavage amounted to 0.733.
For the variant U9A G52A, the self-cleavage is 0.99.
In the case of U9A G39A, the self-cleavage stood at 0.665.
The same measure for U9C C13U: 0.453; for U9C C13G: 0.158.
As to U9C C13A, the self-cleavage came out at 0.158.
As for U9A A87U, the self-cleavage worked out at 1.03.
For U9A A87C, the self-cleavage came out at 1.04.
The same measure for U9A A87G: 1.13; for U9A C22A: 0.388; for U9A C22U: 0.831.
U9A G34U: the self-cleavage came to 0.374.
Turning to U9A C44U, the self-cleavage came to 0.95.
With U9A C44G the figure was 0.914; with U9A C44A, 0.831; with A8U C75A, 0.
In the case of A8U C75U, the self-cleavage is 0.298.
On to U9C G17U, for which the self-cleavage was determined as 0.914.
With U9C G17A the figure was 1.08.
As to U9C G17C, the self-cleavage was 0.415.
With A8U G80A the figure was 0.227.
As to U9A C21G, the self-cleavage amounted to 0.0462.
As for U9A C21A, the self-cleavage is 0.0739.
Regarding U9C G50C, the self-cleavage worked out at 0.886.
The same measure for U9C G50U: 1.02; for U9A U20G: 0.151; for U9A U20A: 0.185.
As to U9A U20C, the self-cleavage is 0.128.
For U9A G25A, the self-cleavage was 0.426.
On to U9A G25U, for which the self-cleavage was determined as 0.175.
Regarding U9A C49U, the self-cleavage turned out to be 0.831.
With U9A C63U, the self-cleavage is 1.19.
Consider U9A A78G, for which the self-cleavage stood at 1.04.
The same measure for U9A A78U: 0.332; for U9A A78C: 0.359; for A8U U27A: 0.578.
In the case of A8U U27C, the self-cleavage came out at 0.196.
With U9A C57U, the self-cleavage was determined as 1.19.
The same measure for U9A C57A: 1.02.
Turning to U9A C32A, the self-cleavage was found to be 0.0898.
Consider U9A C32U, for which the self-cleavage is 0.911.
A8U G82C: the self-cleavage amounted to 0.0923.
With A8U G82U, the self-cleavage amounted to 0.185.
